Measured values published in patent US20260185137A1, “FRET Active E2-UBL Conjugates and Uses Thereof” (Board of Regents, The University of Texas System, priority 2021, published 2026).

B1: R2-WT: tandem RING dimer; R82 of first RING linked to A2 of second through Gly-Ser linker (protein)
chain: ASGILLNVKEEVTCPICLELLTEPLSLHCGHSFCQACITANHKKSMLYKEGERSCPVCRISYQPENIQPNRHVANIVEKLRGSASGILLNVKEEVTCPICLELLTEPLSLHCGHSFCQACITANHKKSMLYKEGERSCPVCRISYQPENIQPNRHVANIVEKLREVKLSPEEGQ
B2: R1-WT: isolated RING monomer construct, residues 2-89 of the rhesus TRIM5α (protein)
chain: ASGILLNVKEEVTCPICLELLTEPLSLHCGHSFCQACITANHKKSMLYKEGERSCPVCRISYQPENIQPNRHVANIVEKLREVKLSPEE

Experiments:
[1] = molecular target: T1, UBE2N/V2-Ub conjugate (Homo sapiens, UniProt P61088); assay: FRET ubiquitin discharge assay, UBE2N/V2-Ub conjugate; format: biochemical; conditions: per RING monomer; room temperature
T1 construct: made in house; host or cells: bacteria
T1 sequence (P61088 whole entry, other chains not shown): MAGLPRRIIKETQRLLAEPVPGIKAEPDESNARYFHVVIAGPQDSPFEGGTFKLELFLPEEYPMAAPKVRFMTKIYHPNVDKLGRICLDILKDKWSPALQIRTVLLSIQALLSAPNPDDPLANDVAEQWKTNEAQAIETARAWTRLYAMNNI
T1 sequence (Q15819 whole entry partner, other chains not shown): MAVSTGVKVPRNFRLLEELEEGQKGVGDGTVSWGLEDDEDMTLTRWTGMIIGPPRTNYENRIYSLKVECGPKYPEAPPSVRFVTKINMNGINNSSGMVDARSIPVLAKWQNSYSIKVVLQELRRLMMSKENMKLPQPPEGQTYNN
Text: To evaluate contributions of distinct RING oligomeric states to TRIM5α autoubiquitination we investigated the catalytic activity of the RING constructs. E3 ubiquitin ligases catalyze the transfer of ubiquitin from the high-energy thioester-linked E2-Ub conjugates onto an amine group of the substrate. One of the challenges in the mechanistic studies of E3 ligases is the difficulty of measuring rates of chemical transformations catalyzed by E3 ligases with sufficient precision. In this study we developed a FRET-based ubiquitin discharge assay that allows continuous, real-time measurement of E3-catalyzed ubiquitin release from E2-Ub conjugates present at nanomolar concentrations in multiple samples in parallel using a fluorescence plate reader (FIG. 3A). […] FRET signals of the E2-Ub conjugates were recorded as a function of time following addition of different RING constructs using AF488 excitation (485/20 nm) and AF594 emission (645/40 nm) bandpass filters. We observed that more than 40% of the total fluorescence signal decayed in a RING-dependent fashion and could, therefore, be attributed to the FRET signal of the conjugate. The outstanding sensitivity, signal-to-noise and throughput of the FRET decay measurements enabled robust and accurate quantification of ubiquitin discharge. […]

[2] = molecular target: T2, TRIM5α RING domain (Macaca mulatta, UniProt Q0PF16); assay: 15N HSQC NMR spectroscopy of RING constructs (dimer-monomer exchange); design: species or system rhesus monkey; conditions: NMR time scale, 298K
T2 construct: The R1 constructs encompass residues 2-90 of rhesus monkey TRIM5α; 6His (N, cleaved yes); GB1 solubility tag (N, cleaved yes); made in house; host or cells: bacteria
Protocol: We then collected series of ^15N HSQC spectra by gradually decreasing protein concentration of the R1-WT sample from […] to 10 μM. As the concentration of the sample was lowered one set of peaks became progressively weaker whereas a new set of peaks appeared and became dominant (FIG. 2A and FIG. 2B). […] The findings confirmed that the R1-WT construct exists in a dimer-monomer equilibrium and that the two distinct sets of NMR signals present at high and low concentrations correspond to the dimeric and monomeric states of the protein, respectively.
NMR spectroscopy. All NMR experiments were performed in 50 mM Sodium Phosphate (pH 7.5), 150 mM NaCl, 1 mM TCEP, 10% (v/v) D2O, 0.04% (w/v) NaN3, and the data collected at 298K on a Bruker Avance 700-MHz spectrometer equipped with a cryoprobe. Backbone assignments were carried out using standard TROSY triple resonance NMR experiments (HNCO, HN(CA)CO, HN(CO)CA, HNCA, HNCACB, and HN(CO)CACB). Protein concentrations for each experiment are shown in the corresponding figures or noted in figure legends. The NMR data were processed using NMRPipe and spectra evaluated using NMRFAM-Sparky.

Row | Molecule | E3 activity (kcat/Km, initial slopes of Michaelis-Menten curves), ubiquitin discharge from UBE2N/V2-Ub conjugate [1] | dimer-monomer exchange rate [2]
1 | B1 | significantly higher than that of the R1-WT | 
2 | B2 |  | < 10 Hz
